Measured values taken from paper PMC7948448.

Target: Bmh1 (UniProt P29311)
Assay: Strep-Bmh1 pull-down, stained SDS-PAGE
Conditions: reference: unmodified Hst2

| Substance | binding against the reference (sites S320) | binding against the reference (sites S324) |
| --- | --- | --- |
| Hst2 (from UniProt P53686) Hst2 S320ph | gained |  |
| Hst2 (from UniProt P53686) Hst2 S324ph |  | gained |
